Laboratory results reported in article PMC7594292, “Two conformations of DNA polymerase D-PCNA-DNA, an archaeal replisome complex, revealed by cryo-electron microscopy” (BMC Biology, 2020).

Columns and labels:
[1] = target: Thermococcus kodakarensis proliferating cell nuclear antigen PCNA1 (TkoPCNA), homotrimer (UniProt Q5JF32); experiment: SPR; conditions: PCNA immobilized on a sensor chip, PolD at 500 nM, read off a plot
[2] = target: DP1 (PolD small subunit);DP2 (PolD large subunit);TkoPCNA (PCNA1) (Thermococcus kodakarensis;Thermococcus …, UniProt Q5JET1;Q5JET0;Q5JET0;Q5JF32 1-735;1-963;1438-1798;1-249, ||); experiment: gel filtration; 50 mM NaCl elution; EMSA: 20 mM Tris-HCl pH 8.0, 10 mM KCl, 10 mM (NH4)2SO4, 1 mM DTT, 0.1 mg/ml BSA, 2 mM MgCl2, 40 C 10 min, 0.8% agarose 0.1x TAE; EM complex: 50 mM Tris-HCl pH; conditions: protein: recombinant;recombinant;recombinant; tags: ;;; copies: 1;1;1;3; primer-template, 5' overhang 15 nt on template
Chain of DP1 (PolD small subunit);DP2 (PolD large subunit);TkoPCNA (PCNA1) (Q5JET0 1-963, one chain of several): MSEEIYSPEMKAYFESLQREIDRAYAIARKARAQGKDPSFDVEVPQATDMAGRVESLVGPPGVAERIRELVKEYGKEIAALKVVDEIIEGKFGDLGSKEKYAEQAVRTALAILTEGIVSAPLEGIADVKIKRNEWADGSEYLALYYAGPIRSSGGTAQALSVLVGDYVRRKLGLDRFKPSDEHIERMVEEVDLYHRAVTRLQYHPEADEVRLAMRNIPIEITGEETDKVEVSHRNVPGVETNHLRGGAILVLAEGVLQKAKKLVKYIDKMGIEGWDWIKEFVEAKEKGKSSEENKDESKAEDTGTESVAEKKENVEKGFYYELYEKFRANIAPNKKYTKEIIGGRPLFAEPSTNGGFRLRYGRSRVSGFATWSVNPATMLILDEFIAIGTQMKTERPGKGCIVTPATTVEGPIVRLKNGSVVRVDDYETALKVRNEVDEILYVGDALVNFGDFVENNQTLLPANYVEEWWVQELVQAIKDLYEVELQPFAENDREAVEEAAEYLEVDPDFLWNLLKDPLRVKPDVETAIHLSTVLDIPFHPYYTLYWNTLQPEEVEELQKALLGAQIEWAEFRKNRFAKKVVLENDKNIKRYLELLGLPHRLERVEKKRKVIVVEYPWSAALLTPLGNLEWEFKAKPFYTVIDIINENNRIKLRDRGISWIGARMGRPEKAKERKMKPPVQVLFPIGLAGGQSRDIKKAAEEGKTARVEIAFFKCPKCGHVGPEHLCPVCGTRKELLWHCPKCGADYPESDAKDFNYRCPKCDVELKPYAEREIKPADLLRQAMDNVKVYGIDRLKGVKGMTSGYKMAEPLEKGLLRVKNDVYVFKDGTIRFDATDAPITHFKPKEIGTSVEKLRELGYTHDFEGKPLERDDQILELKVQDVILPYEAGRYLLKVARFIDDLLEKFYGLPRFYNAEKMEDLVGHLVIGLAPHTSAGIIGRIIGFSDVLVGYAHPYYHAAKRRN

[3] = target: T1, DP1 (PolD small subunit);DP2CTD (Thermococcus kodakarensis;Thermococcus …, UniProt Q5JET1;Q5JET0 1-735;1474-1798, |); experiment: EMSA; 2 mM MgCl2; EMSA: 20 mM Tris-HCl pH 8.0, 10 mM KCl, 10 mM (NH4)2SO4, 1 mM DTT, 0.1 mg/ml BSA, 2 mM MgCl2, 40 C 10 min, 0.8% agarose 0.1x TAE; EM complex: 50 mM Tris-HCl pH; conditions: protein: recombinant;recombinant; tags: ;His; copies: 1;1; label: 5' Cy5 on primer; primer-template, 5' overhang 13 nt on template
T1 sequence 1: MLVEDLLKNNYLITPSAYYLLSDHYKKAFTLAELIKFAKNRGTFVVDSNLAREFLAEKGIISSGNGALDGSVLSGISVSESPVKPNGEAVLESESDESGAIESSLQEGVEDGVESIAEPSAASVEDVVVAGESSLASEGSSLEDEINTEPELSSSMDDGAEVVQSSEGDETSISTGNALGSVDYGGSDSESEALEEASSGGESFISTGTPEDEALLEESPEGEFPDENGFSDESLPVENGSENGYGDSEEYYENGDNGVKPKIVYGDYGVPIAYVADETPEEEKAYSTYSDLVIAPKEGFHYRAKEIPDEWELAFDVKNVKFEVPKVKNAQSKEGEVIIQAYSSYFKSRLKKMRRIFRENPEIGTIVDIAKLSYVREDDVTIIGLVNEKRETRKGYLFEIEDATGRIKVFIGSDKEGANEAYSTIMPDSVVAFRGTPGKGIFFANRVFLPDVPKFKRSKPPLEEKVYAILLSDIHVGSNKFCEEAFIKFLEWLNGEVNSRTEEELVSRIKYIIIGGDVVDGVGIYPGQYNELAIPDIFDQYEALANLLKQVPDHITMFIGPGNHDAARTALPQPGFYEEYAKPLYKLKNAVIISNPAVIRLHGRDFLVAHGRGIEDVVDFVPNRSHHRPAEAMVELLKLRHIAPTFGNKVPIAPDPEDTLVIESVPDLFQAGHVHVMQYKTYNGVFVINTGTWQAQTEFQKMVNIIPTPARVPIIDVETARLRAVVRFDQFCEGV
T1 sequence 2: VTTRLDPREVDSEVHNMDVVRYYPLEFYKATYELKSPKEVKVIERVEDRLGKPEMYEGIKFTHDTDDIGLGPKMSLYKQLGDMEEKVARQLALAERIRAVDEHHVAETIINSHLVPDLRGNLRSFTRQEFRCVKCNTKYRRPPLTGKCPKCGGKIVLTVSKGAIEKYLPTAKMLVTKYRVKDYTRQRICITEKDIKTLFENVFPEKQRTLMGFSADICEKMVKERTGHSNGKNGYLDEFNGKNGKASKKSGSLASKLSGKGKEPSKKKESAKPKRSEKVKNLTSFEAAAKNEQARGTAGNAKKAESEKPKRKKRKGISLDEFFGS

[4] = target: T2, DP2CTD (Thermococcus kodakarensis, UniProt Q5JET0 1474-1798); experiment: EMSA; 2 mM MgCl2; readily detectable but weaker than DP1-DP2CTD; EMSA: 20 mM Tris-HCl pH 8.0, 10 mM KCl, 10 mM (NH4)2SO4, 1 mM DTT, 0.1 mg/ml BSA, 2 mM MgCl2, 40 C 10 min, 0.8% agarose 0.1x TAE; EM complex: 50 mM Tris-HCl pH; conditions: protein: recombinant; tags: His; label: 5' Cy5 on primer; primer-template, 5' overhang 13 nt on template
T2 sequence: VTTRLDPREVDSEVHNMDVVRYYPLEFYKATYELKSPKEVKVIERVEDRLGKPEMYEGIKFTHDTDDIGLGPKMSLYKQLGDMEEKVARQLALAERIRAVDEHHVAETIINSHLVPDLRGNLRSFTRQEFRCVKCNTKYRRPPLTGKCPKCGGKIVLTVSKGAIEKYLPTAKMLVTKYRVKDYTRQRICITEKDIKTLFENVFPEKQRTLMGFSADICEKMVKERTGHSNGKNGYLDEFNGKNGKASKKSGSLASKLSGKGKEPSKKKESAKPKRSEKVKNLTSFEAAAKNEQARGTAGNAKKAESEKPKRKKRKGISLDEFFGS

[5] = target: T3, Thermococcus kodakarensis DNA polymerase D (PolD), wild type, DP1-DP2 heterodimer (Thermococcus kodakarensis); experiment: SPR
[6] = target: T4, PolDΔPIPΔKR: PolD with DP1(K326A K328A) and DP2(K432A R434A R781A, Δ1314-1324) (Thermococcus kodakarensis, UniProt Q5JET0 1-1313, K432A | R434A | R781A, DP1 residue 328 is Ala (wild type printed as both K328 and R328, so the Ala is spliced in). DP2 is the mature intein-free form, residues 1-1313 (PIP box 1314-1324 deleted; mature 1313 = precursor …); experiment: SPR
[7] = target: T5, PolDΔPIP: PolD with DP2(Δ1314-1324) (Thermococcus kodakarensis); experiment: SPR
[8] = target: T6, PolDΔKR: PolD with DP1(K326A K328A) and DP2(K432A R434A R781A) (Thermococcus kodakarensis, DP1 residue 328 is Ala (wild type printed as both K328 and R328, so the Ala is spliced in; the mutagenic primer encodes Ala-Val-Ala at 326-328). DP2 is the mature intein-free form (1324 aa). Zn bound …); experiment: SPR
[9] = target: T3, Thermococcus kodakarensis DNA …; experiment: SPR; remark: listed apart in the source
[10] = target: T4, PolDΔPIPΔKR: PolD with DP1(K326A K328A) …; experiment: SPR; remark: listed apart in the source
[11] = target: T5, PolDΔPIP: PolD with DP2(Δ1314-1324); experiment: SPR; remark: listed apart in the source
[12] = target: T6, PolDΔKR: PolD with DP1(K326A K328A) and …; experiment: SPR; remark: listed apart in the source
[13] = target: the molecule itself; experiment: cryo-EM structure; PolD-PCNA-primed DNA complex reconstituted from purified proteins without Mg2+ and isolated by gel filtration; Form A with DNA (25/35) at 6.9 Å, Form A and Form B with DNA (30/45); crystal structures and homology models fitted

## Thermococcus kodakarensis DNA polymerase D (PolD), wild type, DP1-DP2 heterodimer DP1:K326A; DP1:K328A; DP2:K432A; DP2:R434A; DP2:R781A
[1]; parent: est. 1050
  response: 450 RU

## PolDΔPIP: PolD with DP2(Δ1314-1324) DP1:K326A; DP1:K328A; DP2:K432A; DP2:R434A; DP2:R781A
[1]; parent: est. 700
  response: 150 RU

B1: primed DNA (30/45) (dsDNA)
DNA 1: CGAACTGCCTGGAATCCTGACGACATGTAG
DNA 2: TGAGGTGATCGTTCGCTACATGTCGTCAGGATTCCAGGCAGTTCG
modifications: four successive phosphorothioates near the 3' end of both strands
[2]
  binding result: binds

B2: primed DNA Cy5-pri32/temp45 (dsDNA)
DNA 1: CGAACTGCCTGGAATCCTGACGACATGTAGCG
DNA 2: TGAGGTGATCGTTCGCTACATGTCGTCAGGATTCCAGGCAGTTCG
[3]
  binding result: binds
[4]
  binding result: binds

B3: Thermococcus kodakarensis proliferating cell nuclear antigen PCNA1 (TkoPCNA), homotrimer (natural protein)
chain: MPFEVVFDGAKEFADLIATASNLIDEAAFKFTEEGISMRAMDPSRVVLIDLNLPESIFSKYEVEEPETIGINMDQFKKILKRGKAKDTLILRKGDENFLEITFEGTAKRTFRLPLIDVEELELELPELPFTAKVVLLGEVLKEGIKDASLVSDAIKFIAKENEFTMKAEGETNEVEIRLTLEDEGLLDLEVEEETKSAYGIRYLSDMVKGIGKADEVILRFGNEMPLQMEYMIRDEGRLTFLLAPRVEE
notes: source: purified as described previously [23]
[5]
  Kd: 480 nM
[6]
  Kd: 12000 nM
[7]
  Kd: 1300 nM
[8]
  Kd: 4500 nM
[9]
  koff: 0.0048 s⁻¹
[10]
  koff: 0.016 s⁻¹
[11]
  koff: 0.006 s⁻¹
[12]
  koff: 0.0087 s⁻¹
[13]
  stoichiometry N: 3
